Assay results published in publication PMC11799418.

How the values were obtained:
[1] = biological target: Endophilin B1 (human) (UniProt Q9Y371); assay: cryo-EM structure; endophilin B1 incubated with MSP2N2 nanodiscs at molar ratio 1:2 (MSP2N2:endophilin B1); cryo-EM data split into 2 classes
[2] = biological target: Endophilin B1 (human) (UniProt Q9Y371); assay: SAXS; in solution, 8 and 16 μM endophilin B1 (0.34 and 0.69 mg/ml); 150 mM NaCl, 20 mM HEPES, 1 mM TCEP, 0.5 mM DTT, pH 8.1, 4 °C; monomer to dimer
[3] = biological target: Endophilin B1 (human) (UniProt Q9Y371); assay: cryo-EM structure; endophilin B1 incubated with His6-MSP2N2 nanodiscs (90% DOPS, 10% 14:0 cardiolipin), molar ratio 1:10 (MSP2N2:endophilin B1), SEC peak vitrified; single-particle reconstruction of membrane-bound endophilin B1 on bicelles, cryoSPARC and cryoDRGN

Endophilin B1 (from UniProt Q9Y371 1-365) (natural protein)
stoichiometry N [1]: 2 | stoichiometry N [2]: 2 | dimers bound per bicelle [3]: 6 dimers
